Measured values as given in PMC6529188 (Cell, 2019).
Where no end group is shown, it is not given here.

Target: the molecule itself
Assay: cross-linking

**Q.** PGSLSGIIIGVTVAAVVLIVAVFVCKSLLWKKVLP (domain or fragment, human, UniProt O14763-1 208-242, looked up, also: His6-tagged, active amine groups blocked with Sulfo-NHS Acetate) [His6-tagged DR5^TMH, wild type (for OG-label)] was tested. Which “stoichiometry N” value did it give?
**A.** 6

**Q.** Which “stoichiometry N” value does the source give for PGSLSGIIIYVTVAAVVLIVAVFVCKSLLWKKVLP (domain or fragment, human, UniProt O14763-1 208-242, looked up, also: His6-tagged, active amine groups blocked with Sulfo-NHS Acetate) [His6-tagged DR5^TMH G217Y mutant (for OG-label)] here?
**A.** 3

**Q.** For PGSLSGIIIGVTVAAVVLIYAVFVCKSLLWKKVLP (domain or fragment, human, UniProt O14763-1 208-242, looked up, also: His6-tagged, active amine groups blocked with Sulfo-NHS Acetate) [His6-tagged DR5^TMH V227Y mutant (for OG-label)], which “stoichiometry N” value is on record?
**A.** 6

Target: the molecule itself
Assay: SDS-PAGE without boiling of bicelle-reconstituted protein

**Q.** PGSLSGIIIGVTVAAVVLIVAVFVCKSLLWKKVLP (domain or fragment, UniProt O14763-1 208-242, looked up) [DR5^TMH (human DR5 isoform 1 residues 208-242, C209G), wild type] was tested. Which “stoichiometry N” value did it give?
**A.** 3

**Q.** For PGSLSGIIIYVTVAAVVLIVAVFVCKSLLWKKVLP (domain or fragment, human, UniProt O14763-1 208-242, looked up) [DR5^TMH G217Y mutant], which “stoichiometry N” value is on record?
**A.** 3

**Q.** Which “stoichiometry N” value does the source give for PGSLSGIIIGVTVAAVVLIYAVFVCKSLLWKKVLP (domain or fragment, human, UniProt O14763-1 208-242, looked up) [DR5^TMH V227Y mutant] here?
**A.** 3
